Paper PMC5591402
Changes are numbered by the printed parent chain. Names and notes keep the numbering of the source.

T1: TAMRA-labeled α-synuclein peptide
T1 chain: GYQDYEPEA

B1: N2.17 VHH F100fS (protein)
chain: QGQLVESGGGSVQAGGSLRLSCAASGIDSSSYCMGWFRQRPGKEREGVARINGWGGVKTAYADSVKDRFTISRDNAENTVYLQMNSLKPEDTAIYYCAAKSSPGYCGGTWSNFGYWGQGTQVTVSS
B2: N2.12 VHH T100dS (protein)
chain: B1 chain with A49G, G55R, V57I, T109S
B3: N2.12 VHH R53G (protein)
chain: B1 chain with A49G, V57I
B4: N2.17 VHH W52bL (protein)
chain: B1 chain with W54L, S111F
B5: N2.12 VHH S96F (protein)
chain: B1 chain with A49G, G55R, V57I, S101F
B6: N2.12 VHH G49A (protein)
chain: B1 chain with G55R, V57I
B7: N2.17 VHH T100dS (protein)
chain: B1 chain with T109S, S111F
B8: N2.12 VHH W52bL (protein)
chain: B1 chain with A49G, W54L, G55R, V57I
B9: N2.17 VHH S96F (protein)
chain: B1 chain with S101F, S111F

Target: T1, TAMRA-labeled α-synuclein peptide
Assay: fluorescence polarization
Conditions: chain shown with the change;, read off a plot

Row | Binder | Ka (parent: est. 8.6 x10^7 M^-1) | Ka (parent: est. 13 x10^7 M^-1)
1 | B1 | 9.6 x10^7 M^-1 | –
2 | B2 | – | 8.5 x10^7 M^-1
3 | B3 | – | 7.1 x10^7 M^-1
4 | B4 | 3.3 x10^7 M^-1 | –
5 | B5 | – | 6.7 x10^7 M^-1
6 | B6 | – | 13 x10^7 M^-1
7 | B7 | 3.8 x10^7 M^-1 | –
8 | B8 | – | 6.2 x10^7 M^-1
9 | B9 | 1.6 x10^7 M^-1 | –
